Results on 84 variants are retold here after the RNAGym collection of RNA variant scans (doi:10.1021/acssynbio.7b00057).

First the molecules themselves.
B1: Pistol ribozyme (parent)
chain: GGGUCGUUGUUCCAUAAUCGCGUGGAUAUGGCACGCAAGUUUCUACCGGGCACCGUAAAUGUCCGACUGGAGCCGUUCGGGCGGCUAUAAACAGACCUCAGGCCCGAAGCGUGGCGGCACCUGCCGCCGGUGGUAAAAAAGAUCGGAAGAGCACACGUCU

The variants in the series derive from B1. Briefly: aptazyme ON/OFF ratio, guanine; higher = stronger switching; co-transcriptional cleavage with and without guanine.
As to U7A U8A U11A C12G C13G, the “aptazyme ON/OFF ratio” value worked out at 1.13.
On to U7A U8C G9A U10A U11C C12U C13A, for which the “aptazyme ON/OFF ratio” value turned out to be 1.12.
Turning to U7A U8C G9A U10A U11C C12U C13U, the “aptazyme ON/OFF ratio” value amounted to 1.05.
For U7A U8C G9A U10A U11C C12U C13G, the “aptazyme ON/OFF ratio” value came to 1.15.
On to U7A U8A U10A U11C C12U C13G, for which the “aptazyme ON/OFF ratio” value came out at 1.1.
Next, U7A U8A U10A U11C C12U C13U: 1.04; U7A U8A U11C: 1.38.
On to U7A U8A U11G, for which the “aptazyme ON/OFF ratio” value amounted to 1.25.
Consider U7A U8A U11A, for which the “aptazyme ON/OFF ratio” value was 1.22.
To U7A U8A U10G U11A C13U belongs 1.15; to U7A U8A U10G U11A C13A, 1.19; to U7A U8A U10G U11A C13G, 1.16.
Next, U7A U8C G9A C12G: 1.43; U7A U8C G9A C12A: 1.22; U7A U8C G9A C12U: 1.21.
With U7A U8A U10G U11A C12U C13A, the “aptazyme ON/OFF ratio” value amounted to 1.35.
Turning to U7A U8A U10G U11A C12U C13G, the “aptazyme ON/OFF ratio” value worked out at 1.27.
Regarding U7A U8A U10G U11A C12U C13U, the “aptazyme ON/OFF ratio” value amounted to 1.11.
In the case of U7A U8A U10G U11C C12A C13A, the “aptazyme ON/OFF ratio” value worked out at 1.28.
Next, U7A U8A U10G U11C C12A C13U: 1.34; U7A U8A U10G U11C C12A C13G: 1.09.
As for U7A U8A U10A U11C C13U, the “aptazyme ON/OFF ratio” value amounted to 0.989.
As for U7A U8A U10A U11C C13G, the “aptazyme ON/OFF ratio” value was 1.06.
For the variant U7A U8A U10A U11C C13A, the “aptazyme ON/OFF ratio” value was 1.04.
With U7A U8A U11G C12U C13A, the “aptazyme ON/OFF ratio” value is 1.2.
In the case of U7A U8A U11G C12U C13U, the “aptazyme ON/OFF ratio” value worked out at 1.35.
To U7A U8A U11G C12U C13G belongs 1.25.
For U7A U8C G9A U10C C13U, the “aptazyme ON/OFF ratio” value is 1.12.
On to U7A U8C G9A U10C C13A, for which the “aptazyme ON/OFF ratio” value turned out to be 1.09.
To U7A U8C G9A U10C C13G belongs 1.07; to U7A U8A U11G C12A C13U, 1.46; to U7A U8A U11G C12A C13G, 1.11.
Next, U7A U8A U11G C12A C13A: 1.15; U7A U8A U10A U11G C12A C13A: 1.19; U7A U8A U10A U11G C12A C13G: 1.07.
To U7A U8A U10A U11G C12A C13U belongs 1.18.
Regarding U7A U8A U11C C12G, the “aptazyme ON/OFF ratio” value amounted to 1.17.
U7A U8A U11C C12A: the “aptazyme ON/OFF ratio” value turned out to be 1.36.
To U7A U8A U11C C12U belongs 1.48; to U7A U8C G9A U10A C12A C13G, 1.22; to U7A U8C G9A U10A C12A C13U, 1.36.
Next, U7A U8C G9A U10A C12A C13A: 1.2; U7A U8C G9A U10C C12A C13U: 1.13.
On to U7A U8C G9A U10C C12A C13A, for which the “aptazyme ON/OFF ratio” value worked out at 1.2.
Next, U7A U8C G9A U10C C12A C13G: 1.18.
Take U7A U8A U10G U11G: the “aptazyme ON/OFF ratio” value was 1.38.
Next, U7A U8A U10G U11A: 1.03; U7A U8A U10G U11C: 1.03.
Regarding U7A U8A U10G C12U C13G, the “aptazyme ON/OFF ratio” value is 1.13.
Consider U7A U8A U10G C12U C13U, for which the “aptazyme ON/OFF ratio” value turned out to be 1.42.
In the case of U7A U8A U10G C12U C13A, the “aptazyme ON/OFF ratio” value worked out at 1.51.
For U7A U8A U10C U11C C12U C13G, the “aptazyme ON/OFF ratio” value was 1.15.
U7A U8A U10C U11C C12U C13A: the “aptazyme ON/OFF ratio” value worked out at 1.04.
To U7A U8A U10C U11C C12U C13U belongs 1.05; to U7A U8A U10C U11G C12U C13U, 1.3; to U7A U8A U10C U11G C12U C13A, 1.23.
Regarding U7A U8A U10C U11G C12U C13G, the “aptazyme ON/OFF ratio” value came to 1.1.
To U7A U8A U11G C12A belongs 1.13; to U7A U8A U11G C12U, 1.27.
On to U7A U8A U11G C12G, for which the “aptazyme ON/OFF ratio” value stood at 1.27.
In the case of U7A U8A U10C C12A, the “aptazyme ON/OFF ratio” value was found to be 1.16.
As for U7A U8A U10C C12U, the “aptazyme ON/OFF ratio” value was 1.68.
Take U7A U8A U10C C12G: the “aptazyme ON/OFF ratio” value is 1.16.
Regarding U7A U8C G9A U10A U11A C12U, the “aptazyme ON/OFF ratio” value was determined as 1.25.
As to U7A U8C G9A U10A U11A C12A, the “aptazyme ON/OFF ratio” value was determined as 1.31.
To U7A U8C G9A U10A U11A C12G belongs 1.24.
Take U7A U8C G9A U10A C12G: the “aptazyme ON/OFF ratio” value turned out to be 1.24.
To U7A U8C G9A U10A C12U belongs 1.17; to U7A U8C G9A U10A C12A, 1.26.
With U7A U8A U11C C12U C13A, the “aptazyme ON/OFF ratio” value is 1.21.
Take U7A U8A U11C C12U C13G: the “aptazyme ON/OFF ratio” value stood at 1.21.
Next, U7A U8A U11C C12U C13U: 1.59; U7A U8A U11A C12U C13G: 1.28; U7A U8A U11A C12U C13U: 1.25.
With U7A U8A U11A C12U C13A, the “aptazyme ON/OFF ratio” value amounted to 1.29.
Next, U7A U8C G9A: 1.74.
For U7A U8C G9A U10C C12U, the “aptazyme ON/OFF ratio” value was 1.35.
With U7A U8C G9A U10C C12A, the “aptazyme ON/OFF ratio” value is 1.21.
As to U7A U8C G9A U10C C12G, the “aptazyme ON/OFF ratio” value was 1.29.
As for U7A U8C G9A U10C U11A C12G, the “aptazyme ON/OFF ratio” value turned out to be 1.21.
As for U7A U8C G9A U10C U11A C12U, the “aptazyme ON/OFF ratio” value was found to be 1.25.
As for U7A U8C G9A U10C U11A C12A, the “aptazyme ON/OFF ratio” value amounted to 1.19.
For the variant U7A U8A U10C U11A C12U C13U, the “aptazyme ON/OFF ratio” value came out at 1.11.
As for U7A U8A U10C U11A C12U C13G, the “aptazyme ON/OFF ratio” value stood at 1.1.
